B1: ADI-18933 (antibody, V domains shown)
VH: QVQLVESGAEVKKPGASVKVACTASGYAFTNYNIHWVRLAPGQGLEWMAIINPGSGGTDYSEKFQGRLTLTSDTSTSTVYMTLGSLRYEDTAFYYCARRGYPDSGSYPLDYWGQGTLVTVSS
VL: DIVMTQSPSSLSASLGDRVTITCRAGRSIATYLNWYQQKPGKAPKLLIYGASSLQSGVPSRFSGSGSGTHFTLTISSLQPEDFATYYCQQSYIRPITFGGGTKVEIK
notes: full-length IgG from yeast
B2: ADI-18938 (antibody, V domains shown)
VH: EVQLLESGGGLVQPGGSLRLSCAASGFTFSNYWMHWVRQAPGKGLVWVSRISGDGSDTTYADSVEGRFTISRDNARSTLYLQLNSLTGDDTAVYYCARDLWTTSPYFDLWGQGTLVTVSS
VL: EIVLTQSPGTLSASIGDRVTITCRASQSLNGWLAWYQQKPGKAPRLLIYKSSSLESGVPSRFSGSASGTEFTLTISSLQPDDFATYYCQQYNSWAFGQGTKVDVK
notes: full-length IgG from yeast; also called Antibody Number 291; Ab # 291
B3: ADI-18941 (antibody, V domains shown)
VH: EVQLVESAAEVKKPGESLKISCKGSGYSFASHWIGWVRQMPGKGLELMGFIYPGDSDTRYNPSFQGQVTISADKSISTAYLQWTRLKASDTAMYYCGQAVAGGEYFHHWGQGTLVTVSS
VL: DIVMTQSPATLSVSPGERATLSCRASQSLGSDLAWYQQKPGQTPRLLIYDASTRATGIPARFSGSGSGTEFTLTISSLQSEDFAVYYCQHYNNWPRGFGQGTKVEIK
notes: full-length IgG from yeast
B4: ADI-18942 (antibody, V domains shown)
VH: QVQLQESGPGRVKPSQTLSLTCTVSGVSVTINDYYWTWLRQSPGKGLEWIGNIYNSGSTYQNPSLQSRVTMSVDTAKNHFSLKLTSVTAADTAVYYCARDLGTANNYYFGMDVWGLGTTVTVSS
VL: EIVMTQSPATLSLSPGERATLSCRASQSVSTYLAWYQQKPGQAPRLLIYNGSNRVTGTPARFSGSGSGTDFTLTISSVEPEDFAVYYCQQRSNWPPYTFGQGTKVEIK
notes: full-length IgG from yeast; also called Antibody Number 295; Ab # 295
B5: ADI-18946 (antibody, V domains shown)
VH: QVQLVQSGGGVVQPGRSLRLSCAASGFTFSDYAMHWVRQAPGKGLEWVAIISYDANNKYYADSVKGRFTISRDNSKNTVYLQMNSLRPEDTAVYYCAKEEWLVPAYWGQGILVTVSS
VL: QSVLTQPASVSGSPGQSITISCTGTSSDVGGYNYVSWYQQHPGKAPKLLIYEVSNRPSGVSNRFSGSKSGNTASLTISGLQPEDEADYYCSSYSTNSAPFGTGTKLTVL
notes: full-length IgG from yeast
B6: ADI-18947 (antibody, V domains shown)
VH: QVQLVQSGGGVVQSGRSLRLSCAASGFTFSDNGMHWVRQAPGKGLEWVAGIFHDGSNKQYAESVKGRFIISRDNSKNTLYLQMNSLRAEDTALYFCARAPYDIWSGYCLDYWGQGTLVTVSS
VL: DIRMTQSPATLSLSPGESATLSCRASQSVINNLAWYQQRPGQAPRLLIYGASTRATGIPARFSGSGSETEFTLTISSLQSEDFAVYHCQQYSIWPQTFGQGTKLEIK
notes: full-length IgG from yeast
B7: ADI-18896 (antibody, V domains shown)
VH: EVQLLESGGGVVQSGRSLRLSCAASGFTFSDNGMHWVRQAPGKGLEWVAGIFYDGSNKQYADSVKGRFTISRDNSKSTLYLQMNSLRAEDTAVYYCARAPYDIWSGYCLDYWGQGTLVTVSS
VL: DIQMTQTPATLSMSPGERATLSCRASQSVNNNLAWYQQRPGQAPRLLIYGASTRATGIPARFSGSGSETEFTLTISSLQSEDFAVYHCQQYSIWPQTFGQGTKLEIK
notes: full-length IgG from yeast
B8: ADI-18899 (antibody, V domains shown)
VH: EVQLVESGGGVVQSGRSLRLSCAASGFTFSDNGMHWVRQAPGKGLEWVAGIFYDGSNKQYADSVKGRFTISRDNSKSTLYLQMNSLRAEDTAVYYCARAPYDIWSGYCLDYWGQGTLVTVSS
VL: DIRLTQSPATLSMSPGERATLSCRASQSVNNNLAWYQQRPGQAPRLLIYGASTRATGIPARFSGSGSETEFTLTISSLQSEDFAVYHCQQYSIWPQTFGQGTKVDIK
notes: full-length IgG from yeast
B9: ADI-18887 (antibody, V domains shown)
VH: QVQLVQSGAEVKRPGSSVKVSCKASGGTFSSYALSWVRQAPGQGLEWIGGIIPMHRVTNYAQKFRGRVTISADTSTSTAYLEVNSLRVEDTAMYYCARVFFGTCGGASCFPSDLWGQGTLVTVSS
VL: EIVLTQSPSFVSASVGDGVTITCRASQAISSYLAWYQQKPGQAPKLLIYAASTLQGGVPSRFSGSGSGTHFTLTISSLQPEDFATYYCQQLHSDFQTFGPGTKVEIK
notes: full-length IgG from yeast; also called Antibody Number 242; Ab # 242
B10: ADI-18895 (antibody, V domains shown)
VH: QVQLVQSGPEVKKTRESLKIYCKGSGYSFISHWIGWVRQKPGKGLEWMGIIYPGDSDTRYSPSFQGQVAISADKSINTAYLQWSSLKSSDTAIYYCASVMLRGIMWGQGTLVTVSS
VL: DIRLTQSPSSLSASVGDRVTITCQASQDISKYLNWYQQKPGKAPKLLIYDASNLETGVPSRFSGSGSGTDFTFTISSLQPEDIATYYCQPYDNLPPPLTFGGGTKLEIK
notes: full-length IgG from yeast; also called Antibody Number 250; Ab # 250
B11: ADI-18897 (antibody, V domains shown)
VH: EVQLVESGGGLVQPGGSLRLSCAASGFTIGTYWMSWVRQAPGKGLEWVANIKPDGSEQYYGDSVKGRFTISRDNAKNSLYLQMHSLRAEDAAVFYCARDTPDVLRHLEWPPVGAFDIWGQGTTVTVSS
VL: EIVMTQSPDSLAVSLGERATINCKSSQSLFYSSTNQHYLAWYQQKPGQPPELLIYWASIRESGVPDRFSGSGSGTDFTLTISSLQAADVAVYYCQQYYSSPQTFGQGTKVEIK
notes: full-length IgG from yeast
B12: ADI-18909 (antibody, V domains shown)
VH: QVQLQESGPGLVKPSQTLSLTCTVSGRFLNSGDYYWSWIRQSPGKGLEWLGYIHHSGNTYYNPSLKSRLTISLDMSKNQFSLKLSSVTAADTAVYYCARDLGKPLWDGHYYYGVDVWGQGTTVTVSS
VL: DIVMTQSPGTLSLSPGERATLSCRTSQNVNSNYLAWYQHKPGQAPRLLIYGASSRVTGIPDRFSGSGSGTDFTLTITRVESEDFAVYYCQVYSSSPPITFGQGTKVEIK
notes: full-length IgG from yeast; also called Antibody Number 264; Ab # 264
B13: ADI-18911 (antibody, V domains shown)
VH: QVQLVESGAEARKPGESLKISCKASGYSFTNYWIGWVRQMPGKGLEWMGVIYPADSDTRYSPSFKGQVTISADKSISTAYLQWTRLKASDTAVYFCARLGIGAAARNYWGQGTLVTVSS
VL: DIQVTQSPSSLSASVGDRVTITCQASQDISDSLNWYQQKPGKAPNLLIYDASKSETGVPSRFSGSGSGTDFTFTISSLQPEDLATYYCLQFDNLPPTFGQGTRLEIK
notes: full-length IgG from yeast
B14: ADI-18878 (antibody, V domains shown)
VH: QVQLQESGPRLVKPSQTLSLICDVSGGSIGSGDHYWSWIRQPPGKGLEWIGYIYYSGTTYYNPSLKSRVTISADTSKNQLSLKLSSVTAADTAIYFCARDGGYDHVWGTHRYFDKWGQGTLVTVSS
VL: EIVLTQSPGTLSLSPGERATLSCRASQSVSNSYLAWYQQKPGQAPRLLIYGVSTRATGIPDRFSGSGSGTDFTLTISRLEPEDFAMYHCQQYGASPWTFGQGTKVDIK
notes: full-length IgG from yeast; also called Antibody Number 235; Ab # 235
B15: ADI-18918 (antibody, V domains shown)
VH: QVQLVQSGAEVKKPGESLKISCKGSGYSFSSFWIGWVRQMPGKGLEWMGIIYPGDSDTRYSPSFQGQVTMSADTSINTAYLQWNSVKASDTAIYYCARLPVGSYYYFNLWGRGTLVTVSS
VL: EIVMTQSPATLSVSPGESATLFCRASQSISSDLAWYQQRPGQAPRLLIYDASTRATGVPARFSATGSEAEFTLTISGLQSEDFAVYYCQQYNNWLSWTFGQGTKLEIK
notes: full-length IgG from yeast
B16: ADI-18924 (antibody, V domains shown)
VH: QVQLVQSGAEVKKPGESLKISCQGSGYSFSSFWIVWVRQMPGKGLEWMGSIYPGDSDTRYTPSFQGQVTISADKSTSTAYLQWNSLKPSDTAMYYCARCSLSCDYYGVNLWGQGTTVTVSS
VL: QSVVTQPPSVSGAPGQRVTISCSGSSSNIGARSDVHWYQQLPGKAPKLLIYGNTNRPLGVPDRFSGSTSGTSASLAISGLQAEDEGYYYCQSYDSSLSGFYVFGTGTKLTVL
notes: full-length IgG from yeast

Key:
[1] = target: RSV F protein of subtype A (strain A2) on recombinant mKate-RSV virus (Respiratory syncytial virus subtype A …, UniProt P03420 26-574); assay: cell-based or functional assay
[2] = target: RSV F protein of subtype B (18537) on recombinant mKate-RSV virus (Respiratory syncytial virus subtype B …, UniProt P13843 26-574); assay: cell-based or functional assay
[3] = target: T1, RSV F subtype A, furin-cleaved ectodomain stabilized in the postfusion conformation (F ΔFP) (Respiratory syncytial virus subtype A, UniProt P03420 26-109; P03420 147-524); assay: BLI, IgG on AHQ sensor, 100 nM antigen
T1 construct: extracellular domain; Trimeric soluble antigen; also called Postfusion subtype A

[4] = target: T2, RSV F subtype B, furin-cleaved ectodomain stabilized in the postfusion conformation (F ΔFP) (Respiratory syncytial virus subtype B); assay: BLI, IgG on AHQ sensor, 100 nM antigen
T2 construct: extracellular domain; Trimeric soluble antigen; also called Postfusion subtype B

[5] = target: T3, RSV F subtype A, furin-cleaved ectodomain stabilized in the prefusion conformation (DS-Cav1) (Respiratory syncytial virus subtype A, UniProt P03420 26-524); assay: BLI, IgG on AHQ sensor, 100 nM antigen
T3 construct: extracellular domain; Trimeric soluble antigen; also called Prefusion subtype A

[6] = target: T4, RSV F subtype B, furin-cleaved ectodomain stabilized in the prefusion conformation (DS-Cav1) (Respiratory syncytial virus subtype B); assay: BLI, IgG on AHQ sensor, 100 nM antigen
T4 construct: extracellular domain; Trimeric soluble antigen; also called Prefusion subtype B

Binder	Neut IC50 (µg/ml) subtype A [1] [µg/mL]	Neut IC50 (µg/ml) subtype B [2] [µg/mL]	Kd [3] [pM]	Kd [4] [pM]	Kd [5] [pM]	Kd [6] [pM]
B1	0.075	0.137	20000	616	–	–
B2	0.837	4.25	216	168	165	150
B3	> 10	> 10	19100	645	–	–
B4	0.374	0.614	281	258	865	512
B5	0.093	0.227	206	166	158	157
B6	1.3	3.6	296	282	2450	2200
B7	1.1	4.72	279	270	2270	1810
B8	0.742	2.7	266	251	1920	1590
B9	1.11	> 10	–	549	–	12200
B10	2.3	> 10	2370	486	–	–
B11	0.288	0.762	–	185	–	1530
B12	0.11	0.169	–	225	–	288
B13	0.301	4.85	353	280	–	–
B14	> 10	8.31	–	388	–	5820
B15	0.377	4.59	567	409	–	–
B16	0.572	1.07	411	321	6480	–

From patent US20200223906A1 (Adimab, published 2020)
